Seven substances from US20120039846A1 can be followed below.

Assay [1] concerns the target H77c E2 with substitutions at Val536 (row 10), Phe537 (row 11) and Asn540 (row 12). As to the kind of experiment: ELISA on GNA-captured mutant E2 from 293T lysates. In general terms: In an ELISA, binding on a coated surface is turned into a signal by an enzyme label.
Assay [2] addresses HCV envelope glycoprotein E2, genotype 1a (hepatitis C virus genotype 1a) (UniProt P27958). As to the kind of experiment: cell-based or functional assay.
Assay [3] addresses HCV envelope glycoprotein E2, genotype 1b (hepatitis C virus genotype 1b). As to the kind of experiment: CD81 capture ELISA; 1b E1E2 lysate preincubated with antibody (15 µg/ml), added to CD81-coated wells, detected with biotinylated CBH-4D.
Assay [4] has as its target H77c E2 mutant, Ala531 substituted (hepatitis C virus genotype 1a, strain H77c) (UniProt P27958). As to the kind of experiment: ELISA on GNA-captured mutant E2 from 293T lysates.
For assay [5], the target named is H77c E2 mutant, Asn532 substituted (hepatitis C virus genotype 1a, strain H77c) (UniProt P27958). As to the kind of experiment: ELISA on GNA-captured mutant E2 from 293T lysates.
Assay [6] deals with H77c E2 mutant, Asp533 substituted (hepatitis C virus genotype 1a, strain H77c) (UniProt P27958). As to the kind of experiment: ELISA on GNA-captured mutant E2 from 293T lysates.
For assay [7], the target named is H77c E2 mutant, Pro525 substituted (hepatitis C virus genotype 1a, strain H77c) (UniProt P27958). As to the kind of experiment: ELISA on GNA-captured mutant E2 from 293T lysates.
Assay [8] addresses H77c E2 mutant, Thr534 substituted (hepatitis C virus genotype 1a, strain H77c) (UniProt P27958). As to the kind of experiment: ELISA on GNA-captured mutant E2 from 293T lysates.
The target of assay [9] is HCV envelope glycoprotein E2, genotype 1b (hepatitis C virus genotype 1b). As to the kind of experiment: competition ELISA on GNA-captured E2 of 1b HCVpp lysate; competing antibody 20 ug/ml; competitor: biotinylated CBH-7 at 2 ug/ml.
In assay [10] the target is H77c E2 mutant, Asn540 replaced by alanine (hepatitis C virus genotype 1a, strain H77c) (UniProt P27958). As to the kind of experiment: ELISA on GNA-captured mutant E2 from 293T lysates.
Assay [11] deals with H77c E2 mutant, Asp535 replaced by alanine (hepatitis C virus genotype 1a, strain H77c) (UniProt P27958). As to the kind of experiment: ELISA on GNA-captured mutant E2 from 293T lysates.
Assay [12] concerns the target H77c E2 mutant, Gly523 replaced by alanine (hepatitis C virus genotype 1a, strain H77c) (UniProt P27958). As to the kind of experiment: ELISA on GNA-captured mutant E2 from 293T lysates.
The target of assay [13] is H77c E2 mutant, Gly530 replaced by alanine (hepatitis C virus genotype 1a, strain H77c) (UniProt P27958). As to the kind of experiment: ELISA on GNA-captured mutant E2 from 293T lysates.
In assay [14] the target is H77c E2 mutant, Trp529 replaced by alanine (hepatitis C virus genotype 1a, strain H77c) (UniProt P27958). As to the kind of experiment: ELISA on GNA-captured mutant E2 from 293T lysates.
The target of assay [15] is H77c E2 mutant D658A (hepatitis C virus genotype 1a, strain H77c) (UniProt P27958). As to the kind of experiment: alanine replacement, ELISA.
For assay [16], the target named is H77c E2 mutant D698A (hepatitis C virus genotype 1a, strain H77c) (UniProt P27958). As to the kind of experiment: alanine replacement, ELISA.
Assay [17] has as its target H77c E2 mutant F679A (hepatitis C virus genotype 1a, strain H77c) (UniProt P27958). As to the kind of experiment: alanine replacement, ELISA.
For assay [18], the target named is H77c E2 mutant I696A (hepatitis C virus genotype 1a, strain H77c) (UniProt P27958). As to the kind of experiment: alanine replacement, ELISA.
Assay [19] deals with H77c E2 mutant L692A (hepatitis C virus genotype 1a, strain H77c) (UniProt P27958). As to the kind of experiment: alanine replacement, ELISA.
Assay [20] concerns the target H77c E2 mutant R657A (hepatitis C virus genotype 1a, strain H77c) (UniProt P27958). As to the kind of experiment: alanine replacement, ELISA.

In [1], CBH-4G (antibody) returned a percent decrease in binding vs wild type of 70 to 95%.
As for CBH-5 (antibody), in [2], the IC50 of 1a HCVpp neutralization came to 4 µg/mL and the neutralization of 1a HCVpp at 20 µg/ml turned out to be 60%. In addition, the percent reduction of E2 binding to CD81 in assay [3] is greater than 90%.
For HC-12 (antibody), the percent change in binding vs wild type in assay [4], in assay [5], in [6], in assay [7] and in assay [8] was less than 20% in each case.
On to human monoclonal antibody CBH-23, for which the percent competition in assay [9] was greater than 90%. Further, in assay [3], the percent reduction of E2 binding to CD81 was greater than 90%.
human monoclonal antibody HC-1: the percent change in binding vs wild type in [4], in [5], in [6], in assay [7] and in assay [8] was less than 20% each time. The percent of wild-type binding (% of wild type) in assay [10], in assay [13] and in assay [14] was less than 10 in each case. Moreover, the percent decrease in binding vs wild type was greater than 80% in assay [11], 60% in [12] and greater than 80% in assay [13]. Besides, the percent reduction of E2 binding to CD81 in [3] was greater than 90%.
Take human monoclonal antibody HC-3: the percent decrease in binding in assay [15], in assay [16], in [17], in assay [18], in assay [19] and in assay [20] was greater than 90% each time.
human monoclonal antibody HC-11 registered an IC50 of 1a HCVpp neutralization in assay [2] of 0.9 µg/mL. The results for the percent decrease in binding vs wild type in assay [12] and in [14] were 60% and 44%, respectively. The substance also showed a percent reduction of E2 binding to CD81 in assay [3] greater than 90%.
